Molecular target: HER-2 (human) (UniProt P04626)
Test: SPR (BIAcore), HER-2 immobilised, antibody as analyte

Substance: ch4D5 (antibody)
- koff: 6.3e-06 s⁻¹
- kon: 110000 M⁻¹ s⁻¹
